Measurements reported in article PMC5379037.

B1: W-box probe (dsDNA)
DNA 1: CGTTGACCGTTGACCGAGTTGACTTTTTA
DNA 2: TAAAAAGTCAACTCGGTCAACGGTCAACG
B2: mW-box probe (dsDNA)
DNA 1: CGTAGACGGTAGACGGAGTAGACGTTTTA
DNA 2: TAAAACGTCTACTCCGTCTACCGTCTACG

Target: GST-CaWRKYa (Capsicum annuum, UniProt Q1XD53 1-546)
Experiment: EMSA; 5 ug protein; EMSA: 4 C, 30 min, 5% native polyacrylamide gel in 0.5x TBE; 5 ug protein (0.5 ug in Fig. S5b); binding buffer, salt and pH not stated

GST-CaWRKYa, sequence (Q1XD53 entry or part of it): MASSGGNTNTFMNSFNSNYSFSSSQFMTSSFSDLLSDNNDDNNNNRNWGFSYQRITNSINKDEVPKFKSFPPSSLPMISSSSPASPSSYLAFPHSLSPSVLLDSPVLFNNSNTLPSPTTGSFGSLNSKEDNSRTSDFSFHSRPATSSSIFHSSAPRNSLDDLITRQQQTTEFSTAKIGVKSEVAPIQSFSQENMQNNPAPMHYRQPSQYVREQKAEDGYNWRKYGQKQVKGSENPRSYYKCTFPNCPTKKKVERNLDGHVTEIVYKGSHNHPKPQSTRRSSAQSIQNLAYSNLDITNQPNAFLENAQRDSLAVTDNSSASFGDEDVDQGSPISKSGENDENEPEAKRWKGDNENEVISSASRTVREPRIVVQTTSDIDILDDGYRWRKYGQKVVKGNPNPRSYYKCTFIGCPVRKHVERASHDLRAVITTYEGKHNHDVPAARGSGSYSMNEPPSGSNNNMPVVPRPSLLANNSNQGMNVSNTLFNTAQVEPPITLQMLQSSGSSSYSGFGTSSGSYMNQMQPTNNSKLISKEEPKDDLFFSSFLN

| Binder | binding result |
| --- | --- |
| B1 | binds |
| B2 | no binding |
